Here are results for 2 substances from publication PMC8616027.

Data set [1] concerns HU (HU-1/HU-2, hupA + hupB co-expressed) (Escherichia coli). As to the kind of experiment: EMSA. The note with it: 10 min at 23 C, then 0.8% agarose gel electrophoresis, bound [3H]HU counted in gel slices; binding buffer composition, salt and pH not in the material …; scale: HU dimers bound per plasmid at saturation. For orientation: A gel shift assay detects complexes by their altered migration in electrophoresis.

Data set [2] has the same test system. As to the kind of experiment: competition. The following applies: 10 min at 23 C, then 0.8% agarose gel electrophoresis, bound [3H]HU counted in gel slices; binding buffer composition, salt and pH not in the material ….

Turning to linear pRLM4, the binding signal in data set [1] is 1000.
Regarding “negatively supercoiled pRLM4 (sigma -0.06)”, in data set [2], the binding signal (fold affinity over linear DNA) was determined as 20, the binding signal (fold affinity over relaxed DNA) was > 10 and the binding signal (fold affinity over relaxed pRLM4) was 2. Besides, the binding signal in data set [1] was 1000.
